# Target: T1, IL-9 (Homo sapiens, UniProt P15248)
# T1 construct: pcDNA3.4-IL9 (19-144)-His (P15248); His (C); made in house; host or cells: 293F cells (transient transfection)
# Assay: ELISA binding of humanized antibodies to the target antigen
# Conditions: ELISA of culture supernatant of 293F cells, control chimeric antibody CA1
# Description: ELISA was conducted according to a standard protocol to determine the affinity of a purified antibody for the IL-9-His recombinant protein. In short, the IL-9-His recombinant protein was diluted with sterile PBS and added at 100 μL/well to a 96-well plate. The plate was incubated at 4° C. overnight and then blocked with a blocking buffer. 100 μL of a purified anti-IL-9 antibody serially diluted was added to the plate, and the plate was incubated for 1 h at room temperature. PBS was added to a control well. The plate was washed with PBST 3 times. Then 100 μL of horseradish peroxidase (HRP)-labeled anti-mouse IgG H&L (BIODRAGON, CAT #BF03001) was added, and the plate was incubated for 1 h at room temperature. The plate was washed with PBST 3 times. Then a chromogenic reaction was conducted with a 3,3′,5,5′-tetramethylbenzidine (TMB) chromogenic solution at room temperature. An OD value in each well was read by a microplate reader. Data was processed with PRISM GraphPad, and curves were plotted. The EC50 value for each candidate antibody was calculated.
# Humanized antibody expression vectors carrying a designed heavy-chain or light-chain sequence were transiently transfected into 293F cells in pairs, and then a resulting culture supernatant was collected. According to a standard protocol (with reference to part 5.1 in Example 1), with a human-mouse chimeric antibody CA1 constructed with VH and VL of the original murine antibody as a control, the binding of a humanized antibody to a target antigen was detected by ELISA. The method for ELISA was the same as described in 5.1 of Example 1. […] In the follow-up experiments, the four combinations of VH1−VL2, VH1−VL4, VH2−VL4, and VH3−VL4 (hu.CA1 to hu.CA4) were taken as examples for antibody purification and function testing. […]
# T1 sequence (P15248 19-144): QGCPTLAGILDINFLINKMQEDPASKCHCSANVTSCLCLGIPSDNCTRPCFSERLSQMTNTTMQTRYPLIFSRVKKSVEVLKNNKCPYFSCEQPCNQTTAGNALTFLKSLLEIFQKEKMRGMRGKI
row,Molecule,binding to IL-9
1,"VH3+VL4: humanized antibody, VH SEQ ID NO: 28, VL SEQ ID NO: 33 (antibody, V domains shown) VH: EVQLVQSGAEVMKPGASVKVSCKATGYTFTGYWIEWVRLAPGQGLEWMGEILPGSGSTNYNQKLQGRVTFTADTSTNTAYMELRSLRSDDTAIYYCARRTYYYGIPEDYWGQGTLVTVSS VL: DIVMTQSPKFLSASVGDRVTITCKASQNVGTNVAWHQQKPGQSPKPLIYSASYRYSGVPSRFTGSGSGTDFTLTISNLQPEDFAEYFCQQYNSYPLTFGAGTKLEIK",bind to IL-9 with high affinity
2,"VH4+VL1: humanized antibody, VH SEQ ID NO: 29, VL SEQ ID NO: 30 (antibody, V domains shown) VH: EVQLKQSGAEVMKPGASVKLSCKATGYTFTGYWIEWVKLAPGHGLEWIGEILPGSGSTNYNEEFQGRVTFTADTSSNTAYMELSRLRSDDTAIYYCARRTYYYGIPEDYWGQGTLVTVSS VL: DIVMTQSQKFLSTSVGDRVTITCRASQNVGTNVAWHQQKPGQSPKPLIYSASYRYSGVPSRFTGSGSGTDFTLTISNLQPEDFAEYFCQQYNSYPLTFGAGTKLEIK",bind to IL-9 with high affinity
3,"VH4+VL3: humanized antibody, VH SEQ ID NO: 29, VL SEQ ID NO: 32 (antibody, V domains shown) VH: EVQLKQSGAEVMKPGASVKLSCKATGYTFTGYWIEWVKLAPGHGLEWIGEILPGSGSTNYNEEFQGRVTFTADTSSNTAYMELSRLRSDDTAIYYCARRTYYYGIPEDYWGQGTLVTVSS VL: DIVMTQSPKFVSTSVGDRVTITCRASQNVGTNVAWHQQKPGQSPKPLIYSASYRYSGVPSRFTGSGSGTDFTLTISNLQPEDFAEYFCQQYNSYPLTFGAGTKLEIK",bind to IL-9 with high affinity
4,"VH1+VL1: humanized antibody, VH SEQ ID NO: 26, VL SEQ ID NO: 30 (antibody, V domains shown) VH: EVQLKQSGAEVMKPGASVKVSCKATGYTFTGYWIEWVRLAPGHGLEWMGEILPGSGSTNYNQKFQGRVTFTADTSINTAYMELSRLRSDDTAIYYCARRTYYYGIPEDYWGQGTLVTVSS VL: DIVMTQSQKFLSTSVGDRVTITCRASQNVGTNVAWHQQKPGQSPKPLIYSASYRYSGVPSRFTGSGSGTDFTLTISNLQPEDFAEYFCQQYNSYPLTFGAGTKLEIK",bind to IL-9 with high affinity
5,"VH1+VL3: humanized antibody, VH SEQ ID NO: 26, VL SEQ ID NO: 32 (antibody, V domains shown) VH: EVQLKQSGAEVMKPGASVKVSCKATGYTFTGYWIEWVRLAPGHGLEWMGEILPGSGSTNYNQKFQGRVTFTADTSINTAYMELSRLRSDDTAIYYCARRTYYYGIPEDYWGQGTLVTVSS VL: DIVMTQSPKFVSTSVGDRVTITCRASQNVGTNVAWHQQKPGQSPKPLIYSASYRYSGVPSRFTGSGSGTDFTLTISNLQPEDFAEYFCQQYNSYPLTFGAGTKLEIK",bind to IL-9 with high affinity
6,"VH2+VL1: humanized antibody, VH SEQ ID NO: 27, VL SEQ ID NO: 30 (antibody, V domains shown) VH: EVQLVQSGAEVMKPGASVKVSCKATGYTFTGYWIEWVRLAPGQGLEWMGEILPGSGSTNYNQKFQGRVTFTADTSTNTAYMELSSLRSEDTAIYYCARRTYYYGIPEDYWGQGTLVTVSS VL: DIVMTQSQKFLSTSVGDRVTITCRASQNVGTNVAWHQQKPGQSPKPLIYSASYRYSGVPSRFTGSGSGTDFTLTISNLQPEDFAEYFCQQYNSYPLTFGAGTKLEIK",bind to IL-9 with high affinity
7,"VH2+VL3: humanized antibody, VH SEQ ID NO: 27, VL SEQ ID NO: 32 (antibody, V domains shown) VH: EVQLVQSGAEVMKPGASVKVSCKATGYTFTGYWIEWVRLAPGQGLEWMGEILPGSGSTNYNQKFQGRVTFTADTSTNTAYMELSSLRSEDTAIYYCARRTYYYGIPEDYWGQGTLVTVSS VL: DIVMTQSPKFVSTSVGDRVTITCRASQNVGTNVAWHQQKPGQSPKPLIYSASYRYSGVPSRFTGSGSGTDFTLTISNLQPEDFAEYFCQQYNSYPLTFGAGTKLEIK",bind to IL-9 with high affinity
